In publication PMC6100724 (2018):

Target: Scribble PDZ1 (His-tagged, aa 719-829) (human, UniProt Q14160 719-829)
Experiment: ITC

Sequence of Scribble PDZ1 (His-tagged, aa 719-829) (Q14160 719-829): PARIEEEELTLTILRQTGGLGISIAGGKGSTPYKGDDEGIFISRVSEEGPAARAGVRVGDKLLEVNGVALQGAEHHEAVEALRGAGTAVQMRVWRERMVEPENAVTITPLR

**Q.** ARVSKETPL [ARVSKETPL (MAPK12 peptide, unphosphorylated)] was tested. Which Kd did it give?
**A.** 1600 nM
